Source: US20240116985A1 (published 2024)
Starred links: 1 amine or outer side, 2 acyl side, 3 side chain; linkers in the order of their positions; H or OH if unused. Positions of bridges follow the written chain, without caps; N, C: chain ends. Non-standard residues stand in square brackets, D forms with d. Primed or numbered codes have the meaning given here. PyrS2″ = (S)-3-amino-1-((pent-4-en-1-yloxy)carbonyl)pyrrolidine-3-carboxylic acid (stapling residue), C=CCCCOC(=O)N1CC[C@@](N[*:1])(C(=O)[*:2])C1; B5(4) = 2,2-bis(4-pentenyl)glycine = 2-amino-2-(pent-4-en-1-yl)hept-6-enoic acid (stitching residue), C=CCCCC(CCCC=C)(N[*:1])C(=O)[*:2]; B5(5) = 2,2-bis(4-pentenyl)glycine, 2-amino-2-(pent-4-en-1-yl)hept-6-enoic acid (stitching residue), C=CCCCC(CCCC=C)(N[*:1])C(=O)[*:2]; TfeGA = (S)-2-amino-3-((carboxymethyl)(2,2,2-trifluoroethyl)amino)propanoic acid, O=C([C@H](CN(CC(=O)[*:3])CC(F)(F)F)N[*:1])[*:2]; PyrS2 = (S)-3-amino-1-((pent-4-en-1-yloxy)carbonyl)pyrrolidine-3-carboxylic acid, C=CCCCOC(=O)N1CC[C@@](N[*:1])(C(=O)[*:2])C1; 5iPr3COOHF = (S)-3-(2-amino-2-carboxyethyl)-5-isopropylbenzoic acid, CC(C)c1cc(C[C@H](N[*:1])C(=O)[*:2])cc(C(=O)[*:3])c1; Phe(4-CF3) = N[C@@H](Cc1ccc(C(F)(F)F)cc1)C(=O)O; Phe(3-COOH) = N[C@@H](Cc1cccc(C(=O)O)c1)C(=O)O; 2F3MeF = Cc1cccc(C[C@H](N[*:1])C(=O)[*:2])c1F; Phe(2-CF3) = N[C@@H](Cc1ccccc1C(F)(F)F)C(=O)O; Bta = N[C@@H](Cc1csc2ccccc12)C(=O)O; αAllylPro = C=CC[C@@]1(C(=O)O)CCCN1; tBuAla = CC(C)(C)C[C@H](N)C(=O)O; 3Thi = N[C@@H](Cc1ccsc1)C(=O)O; S8 = C=CCCCCCC[C@](C)(N)C(=O)O

Key:
[1] = target: T1, full-length beta-Catenin (Uniprot ID P35222) (Homo sapiens (Human), UniProt P35222 2-781); assay: AlphaScreen competition: full-length beta-catenin + biotin-TCF4(10-53) probe, peptide titrated
T1 construct: The AlphaScreen assay used a Histidine (Nickel Chelate) detection kit, so a His tag is likely, but no tag is described; also called B-Catenin; bCat
T1 sequence: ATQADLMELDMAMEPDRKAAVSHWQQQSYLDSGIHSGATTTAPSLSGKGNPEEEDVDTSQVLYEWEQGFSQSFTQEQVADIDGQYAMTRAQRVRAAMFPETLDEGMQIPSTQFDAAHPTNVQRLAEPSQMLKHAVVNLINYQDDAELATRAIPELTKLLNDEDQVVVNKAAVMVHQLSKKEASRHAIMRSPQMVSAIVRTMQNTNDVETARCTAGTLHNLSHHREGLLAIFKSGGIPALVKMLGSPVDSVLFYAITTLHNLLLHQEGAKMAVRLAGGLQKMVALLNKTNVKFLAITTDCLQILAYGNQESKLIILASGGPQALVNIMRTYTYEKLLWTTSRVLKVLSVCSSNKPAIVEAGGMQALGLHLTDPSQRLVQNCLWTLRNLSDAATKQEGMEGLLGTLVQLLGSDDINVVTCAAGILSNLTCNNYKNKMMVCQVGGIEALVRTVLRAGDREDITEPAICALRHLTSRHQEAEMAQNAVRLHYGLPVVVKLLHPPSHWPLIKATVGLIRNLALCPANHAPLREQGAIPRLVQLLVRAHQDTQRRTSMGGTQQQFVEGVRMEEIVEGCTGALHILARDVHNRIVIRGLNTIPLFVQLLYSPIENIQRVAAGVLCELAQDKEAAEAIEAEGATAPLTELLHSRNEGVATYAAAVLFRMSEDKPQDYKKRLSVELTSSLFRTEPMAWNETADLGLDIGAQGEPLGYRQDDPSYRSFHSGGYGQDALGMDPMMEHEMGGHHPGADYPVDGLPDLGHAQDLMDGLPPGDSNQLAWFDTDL
Summary of the method: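 Titrated peptide was preincubated 15 minutes at 20° C, then donor and acceptor beads were added for 60 minutes at 20° C protected from light. Reads were done in duplicate, and data were fitted to a 1:1 binding model with Hill slope; concentrations are final.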

[2] = target: T1, full-length beta-Catenin (Uniprot ID …); assay: fluorescence polarization competition: full-length beta-catenin + 5FAM-TCF4(10-53) probe, peptide titrated
Summary of the method: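 Incubate 60 minutes at 20° C. away from light, then read polarization in duplicate. Fit to 1:1 binding with hill slope.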

[3] = target: T2, beta-catenin in DLD1 TCF/LEF luciferase reporter cells (UniProt P35222 1-781); assay: cell-based or functional assay
T2 sequence (looked up): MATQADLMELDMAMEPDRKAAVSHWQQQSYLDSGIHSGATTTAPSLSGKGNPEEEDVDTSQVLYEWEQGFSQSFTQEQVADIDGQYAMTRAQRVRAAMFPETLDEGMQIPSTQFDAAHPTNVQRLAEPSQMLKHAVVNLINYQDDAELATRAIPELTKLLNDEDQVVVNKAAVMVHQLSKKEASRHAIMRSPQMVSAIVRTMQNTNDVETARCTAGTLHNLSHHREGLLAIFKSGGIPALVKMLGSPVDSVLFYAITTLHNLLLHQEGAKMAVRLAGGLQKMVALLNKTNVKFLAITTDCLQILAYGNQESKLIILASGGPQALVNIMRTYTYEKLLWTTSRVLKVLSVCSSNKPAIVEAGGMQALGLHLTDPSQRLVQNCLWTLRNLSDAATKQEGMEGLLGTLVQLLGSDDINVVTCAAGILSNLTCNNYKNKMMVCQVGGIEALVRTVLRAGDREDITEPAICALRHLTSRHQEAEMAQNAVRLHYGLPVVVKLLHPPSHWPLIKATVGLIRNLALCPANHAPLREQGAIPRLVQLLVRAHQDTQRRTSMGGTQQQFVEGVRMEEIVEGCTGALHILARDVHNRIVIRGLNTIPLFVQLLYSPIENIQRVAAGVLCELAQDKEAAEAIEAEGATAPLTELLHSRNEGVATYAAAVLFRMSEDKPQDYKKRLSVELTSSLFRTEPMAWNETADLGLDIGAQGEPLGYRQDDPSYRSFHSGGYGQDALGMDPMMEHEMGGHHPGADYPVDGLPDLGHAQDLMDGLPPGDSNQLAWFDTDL

B-cat-Halo = target: T3, B-cat-Halo (UniProt P35222 1-781); assay: cell-based or functional assay
T3 sequence (looked up): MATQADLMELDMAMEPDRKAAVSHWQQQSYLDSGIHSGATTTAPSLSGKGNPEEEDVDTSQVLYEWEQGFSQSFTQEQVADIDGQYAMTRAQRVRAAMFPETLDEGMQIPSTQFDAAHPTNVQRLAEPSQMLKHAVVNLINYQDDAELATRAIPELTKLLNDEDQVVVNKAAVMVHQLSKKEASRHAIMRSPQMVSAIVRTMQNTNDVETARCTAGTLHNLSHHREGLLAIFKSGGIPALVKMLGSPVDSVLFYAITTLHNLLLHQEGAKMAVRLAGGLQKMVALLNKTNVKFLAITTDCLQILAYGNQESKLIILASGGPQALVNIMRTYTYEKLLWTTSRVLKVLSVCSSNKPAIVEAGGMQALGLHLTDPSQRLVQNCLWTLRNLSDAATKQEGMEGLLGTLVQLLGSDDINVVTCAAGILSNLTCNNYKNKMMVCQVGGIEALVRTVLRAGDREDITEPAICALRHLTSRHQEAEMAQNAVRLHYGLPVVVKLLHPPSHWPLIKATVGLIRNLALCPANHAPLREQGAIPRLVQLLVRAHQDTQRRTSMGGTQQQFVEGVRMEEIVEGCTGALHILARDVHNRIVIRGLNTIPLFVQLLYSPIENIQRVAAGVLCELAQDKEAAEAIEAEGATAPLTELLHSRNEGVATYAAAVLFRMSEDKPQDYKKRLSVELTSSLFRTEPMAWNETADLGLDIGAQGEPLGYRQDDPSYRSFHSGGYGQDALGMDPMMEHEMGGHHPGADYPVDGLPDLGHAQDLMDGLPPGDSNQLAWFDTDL

[4] = target: T4, B-cat-Halo (beta-catenin HaloTag NanoBRET construct expressed in HEK293 cells) (UniProt P35222 1-781); assay: cell-based or functional assay
T4 sequence (looked up): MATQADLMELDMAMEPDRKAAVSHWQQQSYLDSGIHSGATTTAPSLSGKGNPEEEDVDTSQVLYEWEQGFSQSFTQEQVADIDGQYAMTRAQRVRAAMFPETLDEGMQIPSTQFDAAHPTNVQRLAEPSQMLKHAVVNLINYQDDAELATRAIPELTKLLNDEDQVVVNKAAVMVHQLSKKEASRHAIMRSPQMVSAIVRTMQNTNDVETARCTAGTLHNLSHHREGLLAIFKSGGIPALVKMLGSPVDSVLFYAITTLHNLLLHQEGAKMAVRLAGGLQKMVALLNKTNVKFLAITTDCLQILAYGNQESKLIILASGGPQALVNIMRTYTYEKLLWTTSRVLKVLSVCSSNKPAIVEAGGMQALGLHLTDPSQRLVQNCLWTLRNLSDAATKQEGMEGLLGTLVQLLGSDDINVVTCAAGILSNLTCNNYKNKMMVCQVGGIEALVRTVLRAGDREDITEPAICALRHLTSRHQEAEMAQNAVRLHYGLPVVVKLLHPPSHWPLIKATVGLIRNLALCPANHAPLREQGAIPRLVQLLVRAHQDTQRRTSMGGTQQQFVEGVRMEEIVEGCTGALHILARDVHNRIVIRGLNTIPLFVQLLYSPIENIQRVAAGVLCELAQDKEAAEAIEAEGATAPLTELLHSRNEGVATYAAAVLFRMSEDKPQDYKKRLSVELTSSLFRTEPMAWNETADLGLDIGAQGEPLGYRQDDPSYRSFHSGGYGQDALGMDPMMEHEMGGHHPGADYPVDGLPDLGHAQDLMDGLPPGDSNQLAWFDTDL

B1: I-255 (peptide)
peptide: Ac-[αAllylPro]DA[B5(4)]DDAAFV[S8][Phe(4-CF3)]WQ-NH2
modifications: staple 1-4, 4-11
notes: Stapled peptide composition; also called Ac-PL3-Asp-Ala-B5-Asp-Asp-Ala-Ala-Phe-Val-S8-4F3MeF-Trp-Gln-NH2
[1]
  EC50: 1960 nM
[2]
  EC50: 5000 nM

B2: I-254 (peptide)
peptide: XDAXDDAAFVXFWQ
modifications: not fully specified; N-terminal Ac; C-terminal NH2; PL3 at 1, B5 at 4, S8 at 11 (staples 1-4 and 4-11 by olefin metathesis); 4F3MeF at 12
notes: as for B1
[1]
  EC50: 1960 nM
[2]
  EC50: 5000 nM

B3: I-2400 (peptide)
peptide: Ac-[αAllylPro]D[tBuAla][B5(5)]D[Phe(3-COOH)]AAFL[PyrS2][Phe(2-CF3)][Bta]QFA-NH2
modifications: staple 1-4, 4-11
[3]
  DLD1 4% Abs IC50: 800 nM

B4: I-2430 (peptide)
peptide: Ac-[αAllylPro]D[tBuAla][B5(5)]D[5iPr3COOHF]AAFL[PyrS2″][Phe(2-CF3)][Bta]Q-NH2
modifications: staple 1-4, 4-11
B-cat-Halo
  NanoBRET Abs IC50: 4500 nM

B5: I-2396 (peptide)
peptide: Ac-[αAllylPro]D[tBuAla][B5(5)]D[Phe(3-COOH)]AAFL[PyrS2][Phe(2-CF3)][Bta]QL[dL]-NH2
modifications: staple 1-4, 4-11
[3]
  DLD1 4% Abs IC50: 1500 nM

B6: I-2398 (peptide)
peptide: Ac-[αAllylPro]D[tBuAla][B5(5)]D[Phe(3-COOH)]AAFL[PyrS2″][2F3MeF][Bta]QL[dQ]-NH2
modifications: staple 1-4, 4-11
[3]
  DLD1 4% Abs IC50: 1300 nM

B7: I-1054 (peptide)
peptide: AzAc-[αAllylPro]D[tBuAla][B5(4)]D[TfeGA]AAFN[PyrS2][3Thi][Bta]Q-NH2
modifications: staple 1-4, 4-11; not fully specified
[4]
  NanoBRET Abs IC50: > 20000 nM
